Earlier results as cited in publication PMC6039870.

Target: RNH1 (Homo sapiens) (UniProt P13489)
Chain of UniProt P13489 (P13489 2-461): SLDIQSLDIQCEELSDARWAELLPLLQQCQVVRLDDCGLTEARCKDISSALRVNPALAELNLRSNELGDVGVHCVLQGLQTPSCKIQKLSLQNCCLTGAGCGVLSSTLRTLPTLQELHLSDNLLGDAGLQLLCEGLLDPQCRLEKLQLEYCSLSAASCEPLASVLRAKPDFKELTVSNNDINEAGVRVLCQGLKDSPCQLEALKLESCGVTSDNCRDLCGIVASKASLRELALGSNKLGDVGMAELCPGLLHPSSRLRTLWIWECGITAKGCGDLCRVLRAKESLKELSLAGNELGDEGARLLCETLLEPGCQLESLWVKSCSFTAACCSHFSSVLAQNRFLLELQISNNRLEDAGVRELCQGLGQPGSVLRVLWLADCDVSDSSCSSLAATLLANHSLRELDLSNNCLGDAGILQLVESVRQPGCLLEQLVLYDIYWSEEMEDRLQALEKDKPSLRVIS

Kd: 0.0003 pM
Substance: RNASE1 (from UniProt P07998)
